{"source": "paper PMC6548133", "about": "(The Journal of Cell Biology, 2019)", "binders": {"B1": {"name": "talin1 F1(ΔL), residues 84–196 Δ141–170 (F1 Δloop) (domain or fragment)", "chain": "KQRPLKIRMLDGTVKTIMVDDSKTVTDMLMTICARIGITNHDEYSLVRELMEEKKDELNWLDHGRTLREQGVEEHETLLLRRK"}, "B2": {"name": "human Rap1 isoform Rap1b (residues 1–167) (natural protein)", "chain": "MREYKLVVLGSGGVGKSALTVQFVQGIFVEKYDPTIEDSYRKQVEVDAQQCMLEILDTAGTEQFTAMRDLYMKNGQGFALVYSITAQSTFNDLQDLREQILRVKDTDDVPMILVGNKCDLEDERVVGKEQGQNLARQWNNCAFLESSAKSKINVNEIFYDLVRQINR"}}, "key": {"[1]": {"molecular_target": "B2", "test": "NMR titration"}, "[2]": {"molecular_target": "murine talin1 head domain, residues 1–400 (THD) (murine, UniProt P26039 1-400)", "sequence (P26039 1-400)": "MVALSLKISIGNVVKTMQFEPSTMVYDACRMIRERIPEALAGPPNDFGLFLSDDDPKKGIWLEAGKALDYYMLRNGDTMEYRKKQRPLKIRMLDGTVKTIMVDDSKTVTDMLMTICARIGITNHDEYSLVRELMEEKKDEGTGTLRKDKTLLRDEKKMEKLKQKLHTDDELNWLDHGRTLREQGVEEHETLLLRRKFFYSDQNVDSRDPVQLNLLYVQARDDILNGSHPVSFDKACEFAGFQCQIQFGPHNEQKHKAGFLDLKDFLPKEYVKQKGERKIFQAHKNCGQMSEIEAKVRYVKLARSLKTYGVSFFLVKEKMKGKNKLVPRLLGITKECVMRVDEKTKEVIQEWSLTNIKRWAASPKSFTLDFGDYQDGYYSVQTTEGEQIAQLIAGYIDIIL", "test": "NMR titration"}}}
{"binder": "B1", "values": [{"measurement": "binding result", "setting": "[1]", "result": "binds"}]}
{"binder": "B2", "values": [{"measurement": "binding result", "setting": "[2]", "result": "binds"}]}
